From FireProtDB (doi:10.1093/protein/gzi051) come the findings set out here.

First the molecules themselves.
B1: Alpha-lactalbumin, P00711 (parent)
chain: MMSFVSLLLVGILFHATQAEQLTKCEVFRELKDLKGYGGVSLPEWVCTTFHTSGYDTQAIVQNNDSTEYGLFQINNKIWCKDDQNPHSSNICNISCDKFLDDDLTDDIMCVKKILDKVGINYWLAHKALCSEKLDQWLCEKL

The variants in the series derive from B1. The following applies: Bos taurus, pH 7.7, Thermal, Fluorescence, HEPES-KOH 10 mM, structure 1HFZ, whole UniProt chain shown.

Consider E20M, for which the melting temperature (Tm) (in general, the temperature at the midpoint of the melting transition) came out at 36.8 °C. Also, for the setting “CaCl2 1 mM”, the Tm came to 69.8 °C and the “change of melting temperature, mutant - wild type (higher = more stable)” value (from here on “change of melting temperature, mutant”) was found to be 10 °C.

As for E20Q, the Tm was found to be 23.5 °C.

As for E44A, the midpoint of thermal melting (Tm) worked out at 19.5 °C. Moreover, where the note is “CaCl2 1 mM”, the Tm worked out at 60.9 °C and the “change of melting temperature, mutant” value amounted to 1.1 °C.

As for D56N, the Tm stood at 31.7 °C. Where the note is “CaCl2 1 mM”, the Tm was 74.2 °C and the “change of melting temperature, mutant” value came out at 14.4 °C.

In the case of E30L, the Tm was 27.5 °C.

For E26Q, the Tm amounted to 27 °C. For the same variant, for the setting “CaCl2 1 mM”, the Tm amounted to 67.7 °C and the “change of melting temperature, mutant” value is 7.9 °C.
